Patent US20240309070A1
Each block holds one substance with its values, some of them ahead of it.

Columns and labels:
[1] = target: human insulin (human) (UniProt P01308); experiment: polyreactivity ELISA, insulin coated, antibody 10 µg/mL, signal normalised to non-coated well
[2] = target: tEGFR (truncated EGFR) on vector-only transduced T cells (Homo sapiens (Human)) (UniProt P00533)
[3] = target: Western Reserve B5 on cells infected with VVddeGFP Western Reserve virus (Vaccinia virus, Western Reserve strain) (UniProt Q01227); experiment: flow cytometry, HT29 cells infected with WR VV (negative control)
[4] = target: Western Reserve B5 on cells infected with VVddeGFP Western Reserve virus (Vaccinia virus, Western Reserve strain) (UniProt Q01227); experiment: flow cytometry, SKOV3 cells infected with WR VV (negative control)
[5] = target: Copenhagen B5 on cells infected with VVCopenhagen (YFP) virus (Vaccinia virus, Copenhagen strain) (UniProt P21115); experiment: flow cytometry, HT29 cells infected with Copenhagen VV (negative control)

- Polyreactivity Insulin Score [1]: 2.9 score
Substance: Infliximab (antibody)

Substance: VV B5 monomer protein (Wyeth Vaccinia strain B5 with C-terminal AVI tag and HIS6 tag) (from UniProt O57254 18-279)
- CAR+ % Parent [2]: 1.54%

Substance: human IgG1k isotype control (antibody)
- EC50 [3]: 0.02 nM
- EC50 [4]: 0.01 nM
- EC50 [5]: 0.01 nM
